Results published in patent US20180155451A1 (published 2018).

T1: FcγRIIa H (human, UniProt P12318 34-217)
T1 construct: extracellular domain; also called FcgRIIa H type; 2aH
T1 sequence (looked up): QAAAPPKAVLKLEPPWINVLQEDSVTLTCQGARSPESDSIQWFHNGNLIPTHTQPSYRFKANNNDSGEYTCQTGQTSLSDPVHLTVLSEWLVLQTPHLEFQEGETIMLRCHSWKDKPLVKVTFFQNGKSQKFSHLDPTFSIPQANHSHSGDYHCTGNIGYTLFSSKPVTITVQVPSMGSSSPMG

T2: FcγRIIb (human, UniProt P31994 43-217)
T2 construct: extracellular domain; also called FcgRIIb; 2b
T2 sequence (looked up): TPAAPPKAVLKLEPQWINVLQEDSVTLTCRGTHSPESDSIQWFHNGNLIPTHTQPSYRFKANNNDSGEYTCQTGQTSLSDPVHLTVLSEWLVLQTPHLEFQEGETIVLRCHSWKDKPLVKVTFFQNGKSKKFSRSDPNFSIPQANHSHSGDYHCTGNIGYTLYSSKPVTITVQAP

B1: GpH7-A5/GpH7-B3 variant H268_04F/GpL16-k0 (antibody, human IgG1, kappa)
heavy 1: not shown
heavy 2: not shown
light: DIVMTQSPLSLPVTPGEPASISCQASESLVHSNRNTYLHWYLQKPGQSPQLLIYKVSNRFSGVPDRFSGSGSGTDFTLKISRVEAEDVGVYYCSQNTHVPPTFGQGTKVEIERTVAAPSVFIFPPSDEQLKSGTASVVCLLNNFYPREAKVQWKVDNALQSGNSQESVTEQDSKDSTYSLSSTLTLSKADYEKHKVYACEVTHQGLSSPVTKSFNRGEC
notes: Heterodimerized anti-glypican-3 IgG1; substitution in only one H chain (the GpH7-B3 chain); also called He Ab
B2: GpH7-A5/GpH7-B3 variant D265_07I/GpL16-k0 (antibody, human IgG1, kappa)
heavy 1: not shown
heavy 2: not shown
light: B1 light
notes: as for B1
B3: GpH7-A5/GpH7-B3 variant D265_19Q/GpL16-k0 (antibody, human IgG1, kappa)
heavy 1: not shown
heavy 2: not shown
light: B1 light
notes: as for B1
B4: GpH7-A5/GpH7-B3 variant D265_06M/GpL16-k0 (antibody, human IgG1, kappa)
heavy 1: not shown
heavy 2: not shown
light: B1 light
notes: as for B1
B5: GpH7-A5/GpH7-B3 variant D265_11K/GpL16-k0 (antibody, human IgG1, kappa)
heavy 1: not shown
heavy 2: not shown
light: B1 light
notes: as for B1
B6: GpH7-A5/GpH7-B3 variant D265_15Y/GpL16-k0 (antibody, human IgG1, kappa)
heavy 1: not shown
heavy 2: not shown
light: B1 light
notes: as for B1
B7: GpH7-A5/GpH7-B3 variant E269_01G/GpL16-k0 (antibody, human IgG1, kappa)
heavy 1: not shown
heavy 2: not shown
light: B1 light
notes: as for B1
B8: GpH7-A5/GpH7-B3 variant D265_13S/GpL16-k0 (antibody, human IgG1, kappa)
heavy 1: not shown
heavy 2: not shown
light: B1 light
notes: as for B1
B9: GpH7-A5/GpH7-B3 variant V266_05P/GpL16-k0 (antibody, human IgG1, kappa)
heavy 1: not shown
heavy 2: not shown
light: B1 light
notes: as for B1
B10: GpH7-A5/GpH7-B3 variant H268_06M/GpL16-k0 (antibody, human IgG1, kappa)
heavy 1: not shown
heavy 2: not shown
light: B1 light
notes: as for B1
B11: GpH7-A5/GpH7-B3 variant D265_14T/GpL16-k0 (antibody, human IgG1, kappa)
heavy 1: not shown
heavy 2: not shown
light: B1 light
notes: as for B1
B12: GpH7-A5/GpH7-B3 variant D265_16H/GpL16-k0 (antibody, human IgG1, kappa)
heavy 1: not shown
heavy 2: not shown
light: B1 light
notes: as for B1
B13: GpH7-A5/GpH7-B3 variant D265_18N/GpL16-k0 (antibody, human IgG1, kappa)
heavy 1: not shown
heavy 2: not shown
light: B1 light
notes: as for B1
B14: GpH7-A5/GpH7-B3 variant D265_20W/GpL16-k0 (antibody, human IgG1, kappa)
heavy 1: not shown
heavy 2: not shown
light: B1 light
notes: as for B1
B15: GpH7-A5/GpH7-B3 variant H268_08L/GpL16-k0 (antibody, human IgG1, kappa)
heavy 1: not shown
heavy 2: not shown
light: B1 light
notes: as for B1

Molecular target: T1, FcγRIIa H
Assay: ratio of He/Con_2aH to He/Con_2b (relative SPR binding to FcγRIIa H over that of the same antibody to FcγRIIb)

He_2aH/2b (IIaH/IIb) | Binder
1.24 | B1
2.35 | B2
1.43 | B3
1.35 | B4
1.87 | B5
6.07 | B6
1.39 | B7
1.75 | B8
1.91 | B9
1.29 | B10
1.5 | B11
1.27 | B12
2.01 | B13
2.86 | B14
1.25 | B15

Molecular target: T2, FcγRIIb
Assay: SPR (Biacore), antibody captured on antigen-peptide chip, FcγR as analyte; binding relative to GpH7-A5/GpH7-B3/GpL16-k0 = 100

He/Con_2b | Binder
89.6 % of HeCon Ab | B1
1.3 % of HeCon Ab | B2
33.4 % of HeCon Ab | B3
10 % of HeCon Ab | B4
14.9 % of HeCon Ab | B5
0.6 % of HeCon Ab | B6
51.5 % of HeCon Ab | B7
11.3 % of HeCon Ab | B8
0.4 % of HeCon Ab | B9
65.7 % of HeCon Ab | B10
16 % of HeCon Ab | B11
38.3 % of HeCon Ab | B12
6.1 % of HeCon Ab | B13
1.1 % of HeCon Ab | B14
67.8 % of HeCon Ab | B15

Molecular target: T1, FcγRIIa H
Assay: as above

He/Con_2aH | Binder
111 % of HeCon Ab | B1
3.1 % of HeCon Ab | B2
47.7 % of HeCon Ab | B3
13.5 % of HeCon Ab | B4
27.8 % of HeCon Ab | B5
3.7 % of HeCon Ab | B6
71.5 % of HeCon Ab | B7
19.8 % of HeCon Ab | B8
0.7 % of HeCon Ab | B9
84.8 % of HeCon Ab | B10
24.1 % of HeCon Ab | B11
48.6 % of HeCon Ab | B12
12.4 % of HeCon Ab | B13
3.2 % of HeCon Ab | B14
85 % of HeCon Ab | B15
